Measured values taken from paper PMC12713080.

Assays:
[1] = biological target: copper (Cu-charged NTA beads); experiment: NTA-copper bead pull-down of purified protein, IB quantified; settings: 0.5 h at 4 °C; washed with NETN buffer (20 mm Tris-HCl (PH 8.0), 300 mm NaCl, 0.5% NP-40, 1 mm EDTA) 5 times; mean+/-SD, n = 3; parent: est. 2.4; read off a plot
[2] = biological target: copper (Cu pull-down beads); experiment: copper pull-down, IB quantified; settings: HEK293T cell lysate; mean+/-SD, n = 3; parent: est. 1.9; read off a plot

Row | response [1] | response [2] | Substance
1 | 0.4 |  | TAK1-N H154A; M196A
2 |  | 0.8 | HA‐TAK1 (from UniProt O43318) M196A
3 |  | 1 | HA‐TAK1 (from UniProt O43318) H154A
4 |  | 0.95 | HA‐TAK1 (from UniProt O43318) H154A; M196A
